These results are taken from patent publication US20200024330A1.

Where only a bound is given, the exact number is not on record here.

In general, IC50 refers to the concentration that inhibits the measured activity by half. A higher IC50 goes with weaker potency.

Assay in all cases: cell-based or functional assay
Assay [1] concerns the target HIV-1 Env of pseudovirus 6535.3 (Acute), clade B (HIV-1).
Assay [2] has as its target HIV-1 MGRM-F1-010 Env (pseudovirus) (HIV-1).
The target in assay [3] is HIV-1 Env of isolate MGRM-D-024 (clade D) (HIV-1).
The target in assay [4] is HIV-1 Env of pseudovirus TRJ0.58 (Acute), clade B (HIV-1).
The target in assay [5] is HIV-1 Env of isolate MGRM-G-016 (clade G pseudovirus) (HIV-1).
For assay [6], the target named is HIV-1 Env of isolate MGRM-D-012 (clade D) (HIV-1).
In assay [7] the target is HIV-1 MGRM-C-014 Env (HIV-1).
Assay [8] deals with HIV-1 93RW029 envelope glycoprotein (Env) (HIV-1).
Assay [9] has as its target HIV-1 MGRM-C-026 envelope glycoprotein (Env) on pseudovirus (HIV-1).
For assay [10], the target named is HIV-1 Env of isolate MGRM-D-019 (HIV-1).
The target of assay [11] is HIV-1 MGRM-F1-014 Env (pseudovirus) (HIV-1).
The target of assay [12] is HIV-1 MGRM-A-014 envelope glycoprotein (Env) (HIV-1).
In assay [13] the target is HIV-1 94UG103 envelope glycoprotein (Env) (HIV-1).
Assay [14] has as its target HIV-1 JRCSF envelope glycoprotein (Env) on pseudovirus (HIV-1).
The target of assay [15] is HIV-1 Env of isolate MGRM-D-004 (clade D) (HIV-1).
Assay [16] deals with HIV-1 Env of isolate MG RM-D-026 (subtype D) (HIV-1).
Assay [17] addresses HIV-1 Env of isolate MGRM-C-026 (pseudovirus) (HIV-1 isolate MGRM-C-026, subtype C).
The target in assay [18] is HIV-1 Env of isolate MGRM-F1-010 (subtype F) (HIV-1).
The target of assay [19] is HIV-1 Env of isolate MGRM-C-019 (pseudovirus) (HIV-1 isolate MGRM-C-019, subtype C).
Assay [20] concerns the target HIV-1 MGRM-Chronic-B-020 Env (pseudovirus) (HIV-1).
The target in assay [21] is HIV-1 Env of isolate MGRM-C-013 (pseudovirus) (HIV-1 isolate MGRM-C-013, subtype C).
Assay [22] deals with HIV-1 Env of isolate MG RM-D-008 (subtype D) (HIV-1).
For assay [23], the target named is HIV-1 Env of isolate MGRM-F1-012 (subtype F) (HIV-1).
For assay [24], the target named is HIV-1 Env of isolate MGRM-F1-018 (HIV-1).
Assay [25] addresses HIV-1 MGRM-Chronic-B-003 Env (pseudovirus) (HIV-1).
Assay [26] addresses HIV-1 MGRM-Chronic-B-024 Env (pseudovirus) (HIV-1).
Assay [27] has as its target HIV-1 Env of isolate MG RM-D-018 (subtype D) (HIV-1).
For assay [28], the target named is HIV-1 VLGCB3 Env (pseudovirus) (HIV-1).
Assay [29] addresses HIV-1 APV_13 Env (pseudovirus) (HIV-1).
In assay [30] the target is HIV-1 JR-CSF Env K168A (HIV-1 (isolate JR-CSF)) (UniProt P20871).
The target of assay [31] is HIV-1 Env of isolate MGRM-Chronic-B-003 (HIV-1).

Take 1496_C09 (PG9) (TCN-109) (antibody): the IC50 (µg/ml), pseudovirus neutralization was determined as 0.22 µg/mL in assay [1]; 0.03 µg/mL in assay [2]; 0.03 µg/mL in assay [3]; 0.43 µg/mL in assay [4]; 0.4 µg/mL in [5]; 9.31 µg/mL in [6]. The IC50 (µg/ml), pseudovirus neutralization turned out to be 1.19 µg/mL in [8]; 0.01 µg/mL in assay [11]; 0.62 µg/mL in [12]; 0.24 µg/mL in assay [13]; 0.03 µg/mL in assay [15]. Besides, the IC50 in [7] was 0.64 µg/mL. Also, in [9], the IC50 (ug/ml), neutralizing activity worked out at 0.113 µg/mL. Also, the IC50 neutralization turned out to be 0.113 µg/mL in assay [9] and 0.31 µg/mL in assay [13]. Also, the IC50 (µg/mL), pseudovirus neutralization in assay [10] turned out to be 0.038 µg/mL. In addition, in assay [14], the IC90 (pseudovirus neutralization) is less than 0.0025 µg/mL.

In the case of 4838_L06 (PGT-121) (antibody), the IC50 (µg/mL), pseudovirus neutralization in [16] is greater than 50 µg/mL; in assay [18] it was 0.016 µg/mL; in assay [22], greater than 50 µg/mL; in assay [23] it was 1.91 µg/mL; in assay [27] it was 0.005 µg/mL. For the same substance, the figures for the IC50 (µg/mL) neutralization in assay [17], in assay [19] and in [21] were 0.002 µg/mL, greater than 50 µg/mL and 7.23 µg/mL, respectively. Also, the IC50, pseudovirus neutralization in assay [20] came to 0.004 µg/mL; in assay [25] it was 0.011 µg/mL; in assay [26] it was 0.195 µg/mL; in assay [28], 0.005 µg/mL; in assay [29], 0.251 µg/mL. In assay [24], this substance had a half-maximal inhibitory concentration (IC50) of 0.04 µg/mL.

Turning to 4858_P08 (PGT-123) (antibody), the IC50 (µg/mL), pseudovirus neutralization in [16] was greater than 50 µg/mL; in assay [18], 0.016 µg/mL; in assay [22] it was greater than 50 µg/mL; in assay [23], 22.2 µg/mL; in assay [27], 0.007 µg/mL. Also, the IC50 (µg/mL) neutralization is 0.001 µg/mL in [17], greater than 50 µg/mL in assay [19] and 14.9 µg/mL in [21]. The IC50, pseudovirus neutralization in assay [20] was 0.005 µg/mL; in [25] it was 0.008 µg/mL; in assay [26], greater than 50 µg/mL; in assay [9], 0.0031 µg/mL; in assay [28] it was 0.004 µg/mL; in assay [29] it was 0.138 µg/mL. In assay [24], this substance had an IC50 of 0.054 µg/mL. The IC50 (ug/ml), neutralizing activity in [9] was found to be 0.0031 µg/mL. The same substance yielded an IC80, pseudovirus neutralization in [9] of 0.0094 µg/mL. This substance also gave an IC90 (pseudovirus neutralization) in assay [9] of 0.0183 µg/mL. The IC95, pseudovirus neutralization in assay [9] worked out at 0.0338 µg/mL. The same substance yielded a Fold IC50 increase relative to wild-type in assay [30] of 0.8 fold.

For the substance 4877_D15 (PGT-122) (antibody), the IC50 (µg/mL), pseudovirus neutralization is greater than 50 µg/mL in assay [16]; 0.024 µg/mL in assay [18]; greater than 50 µg/mL in assay [22]; greater than 50 µg/mL in [23]; 0.007 µg/mL in assay [27]. The IC50 (µg/mL) neutralization in assay [17] was 0.006 µg/mL; in [19], greater than 50 µg/mL; in [21], 32.6 µg/mL. Further, the IC50, pseudovirus neutralization turned out to be 0.005 µg/mL in assay [20]; 0.008 µg/mL in [25]; 2.31 µg/mL in assay [26]; 0.008 µg/mL in assay [28]; 0.778 µg/mL in [29]. Further, in assay [24], the IC50 was found to be 0.563 µg/mL. The IC50 (ug/ml), neutralizing activity in [9] was 0.0089 µg/mL.

In the case of 5123_A06 (PGT-125) (antibody), the IC50 (µg/mL), pseudovirus neutralization in assay [16], in [18], in assay [22], in [23] and in [27] was greater than 50 µg/mL each time. In addition, the IC50 (µg/mL) neutralization is 0.005 µg/mL in assay [17], 0.13 µg/mL in assay [19] and greater than 50 µg/mL in assay [21]. The IC50, pseudovirus neutralization was 0.087 µg/mL in assay [20]; 0.157 µg/mL in [25]; greater than 50 µg/mL in assay [26]; 0.015 µg/mL in [28]; 0.007 µg/mL in [29]. The same substance displayed an IC50 in [24] greater than 50 µg/mL. In addition, in assay [9], the IC50 (ug/ml), neutralizing activity came out at 0.0106 µg/mL. Besides, the neutralization IC50 in assay [9] was found to be 0.0106 µg/mL. In addition, the neutralization IC80 in assay [9] was found to be 0.035 µg/mL. The neutralization IC90 in [9] amounted to 0.0705 µg/mL. The substance also returned a neutralization IC95 in [9] of 0.134 µg/mL. The Fold IC50 increase relative to wild-type in assay [30] amounted to 0.9 fold.

Take 5141_B17 (PGT-126) (antibody): the IC50 (µg/mL), pseudovirus neutralization is greater than 50 µg/mL in assay [16]; greater than 50 µg/mL in assay [18]; 43.1 µg/mL in assay [22]; 0.3 µg/mL in assay [23]; 0.009 µg/mL in [27]. Also, the IC50 (µg/mL) neutralization was 0.007 µg/mL in [17], 0.005 µg/mL in assay [19] and greater than 50 µg/mL in assay [21]. In addition, the IC50, pseudovirus neutralization was 0.021 µg/mL in assay [20]; 0.041 µg/mL in assay [25]; greater than 50 µg/mL in assay [26]; 0.007 µg/mL in assay [28]; 0.012 µg/mL in [29]. Moreover, the IC50 in [24] was 14.9 µg/mL. Also, the IC50 (ug/ml), neutralizing activity in [9] worked out at 0.0076 µg/mL. The substance further gave a Fold IC50 increase relative to wild-type in assay [30] of 0.7 fold.

Turning to 5145_B14 (PGT-127) (antibody), the IC50 (µg/mL), pseudovirus neutralization in assay [16] is greater than 50 µg/mL; in assay [18], greater than 50 µg/mL; in assay [22] it was greater than 50 µg/mL; in [23], greater than 50 µg/mL; in assay [27] it was 0.021 µg/mL. The results for the IC50 (µg/mL) neutralization in assay [17], in [19] and in assay [21] were 0.014 µg/mL, 0.017 µg/mL and greater than 50 µg/mL, respectively. The IC50, pseudovirus neutralization is 0.05 µg/mL in [20]; 0.12 µg/mL in assay [25]; greater than 50 µg/mL in assay [26]; 0.022 µg/mL in assay [28]; 0.026 µg/mL in [29]. Also, the IC50 in assay [24] amounted to 3.59 µg/mL. The substance further returned a Fold IC50 increase relative to wild-type in assay [30] of 1.9 fold.

As to PGT-121 (antibody), the IC50 neutralization in assay [13] turned out to be 1.38 µg/mL.

As for PGT-122 (antibody), the IC50 neutralization in [13] worked out at 1.46 µg/mL.

For the substance PGV04 (antibody), the IC50 (µg/mL), pseudovirus neutralization in [10] worked out at 0.35 µg/mL.

VRC01 (antibody): in [31], the IC50 came out at 0.1 µg/mL. For the same substance, the IC50, pseudovirus neutralization in [24] was found to be 0.032 µg/mL; in [10] it was 0.119 µg/mL.
